Data from publication PMC11919701.
One block for each substance: values may come before it.

How the values were obtained:
[1] = target: CtMrs2 106-539 in MSP1D1/POPC nanodiscs, open-state sample prepared with EDTA (Chaetomium thermophilum); assay: cryo-EM structure; open state: MSP1D1/POPC nanodiscs, 50 mM HEPES pH 7.5, 100 mM NaCl, 2 mM EDTA, 1 mM fluorinated Fos-choline-8; C1 and C5 maps
[2] = target: CtMrs2 106-539 lacking GFP (TEV-cleaved), in MSP1D1/POPC nanodiscs, closed-state sample with Mg2+ (Chaetomium thermophilum); assay: cryo-EM structure; closed state: MSP1D1/POPC nanodiscs, 50 mM HEPES-Na pH 7.5, 100 mM NaCl, 2 mM MgCl2 plus additional 10 mM MgCl2; C1 and C5 maps
[3] = target: GFP-fused CtMrs2 106-539 E374A;E378A (Chaetomium thermophilum); assay: SEC; purified GFP-fused CtMrs2 forms used for the limited proteolysis assay; final SEC buffer as buffer A but pH 8.0, DDM
[4] = target: GFP-fused CtMrs2 106-539 E374R (Chaetomium thermophilum); assay: as above
[5] = target: GFP-fused CtMrs2 106-539 S328A;T329A (Chaetomium thermophilum); assay: as above
[6] = target: GFP-fused CtMrs2 106-539 S396A;S397A (Chaetomium thermophilum); assay: as above
[7] = target: GFP-fused CtMrs2 (His10-GFP-G4S-TEV-CtMrs2 106-539), wild type (Chaetomium thermophilum); assay: native gel or EMSA; Coomassie-stained blue native PAGE of purified detergent-solubilised GFP-fused CtMrs2
[8] = target: GFP-fused CtMrs2 (His10-GFP-G4S-TEV-CtMrs2 106-539), wild type (Chaetomium thermophilum); assay: SEC; purified GFP-fused CtMrs2 forms used for the limited proteolysis assay; final SEC buffer as buffer A but pH 8.0, DDM
[9] = target: GFP-fused CtMrs2 (His10-GFP-G4S-TEV-CtMrs2 106-539), wild type (Chaetomium thermophilum); assay: SEC; detergent-solubilised GFP-fused CtMrs2 on Superose 6; buffer A (50 mM HEPES-NaOH pH 7.5, 150 mM NaCl, 10% glycerol) with 0.05% DDM and 2 mM MgCl2

Substance: CtMrs2 106-539 in MSP1D1/POPC nanodiscs, open-state sample prepared with EDTA (natural protein)
stoichiometry N [1]: 5

Substance: GFP-fused CtMrs2 106-539 E374A;E378A (natural protein)
stoichiometry N [3]: 5

Substance: GFP-fused CtMrs2 106-539 S328A;T329A (natural protein)
stoichiometry N [5]: 5

Substance: GFP-fused CtMrs2 106-539 S396A;S397A (natural protein)
stoichiometry N [6]: 5

Continued, values first:

stoichiometry N [2]: 5
Substance: CtMrs2 106-539 lacking GFP (TEV-cleaved), in MSP1D1/POPC nanodiscs, closed-state sample with Mg2+ (natural protein)

stoichiometry N [4]: 5
Substance: GFP-fused CtMrs2 106-539 E374R (natural protein)

stoichiometry N [7]: 5
stoichiometry N [8]: 5
stoichiometry N [9]: 5
Substance: GFP-fused CtMrs2 (His10-GFP-G4S-TEV-CtMrs2 106-539), wild type (natural protein)
